T1: human GFRα2 expressed with a C-terminal human Fc tag and a hexahistidine tag (human, UniProt O00451 22-441, limits assumed)
T1 construct: bought protein; also called hGFRα2-hFc-6His; hGFRα2-hFc-6his
T1 sequence (looked up): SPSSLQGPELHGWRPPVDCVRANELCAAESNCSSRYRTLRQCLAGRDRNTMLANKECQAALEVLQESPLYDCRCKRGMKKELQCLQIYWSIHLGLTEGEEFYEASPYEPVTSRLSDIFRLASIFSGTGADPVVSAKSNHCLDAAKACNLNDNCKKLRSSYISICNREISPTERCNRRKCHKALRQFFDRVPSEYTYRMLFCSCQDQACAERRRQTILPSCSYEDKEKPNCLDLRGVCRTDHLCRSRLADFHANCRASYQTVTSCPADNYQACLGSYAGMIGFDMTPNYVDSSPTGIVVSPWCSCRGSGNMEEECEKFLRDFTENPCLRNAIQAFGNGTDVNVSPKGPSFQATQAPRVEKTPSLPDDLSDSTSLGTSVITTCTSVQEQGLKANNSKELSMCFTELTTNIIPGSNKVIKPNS

T2: cynomolgus GFRα3 on HEK293/MfGFRα3/MfRet/SRE-Luc cells (cynomolgus, UniProt O60609 1-400 (human entry), limits assumed)
T2 chain: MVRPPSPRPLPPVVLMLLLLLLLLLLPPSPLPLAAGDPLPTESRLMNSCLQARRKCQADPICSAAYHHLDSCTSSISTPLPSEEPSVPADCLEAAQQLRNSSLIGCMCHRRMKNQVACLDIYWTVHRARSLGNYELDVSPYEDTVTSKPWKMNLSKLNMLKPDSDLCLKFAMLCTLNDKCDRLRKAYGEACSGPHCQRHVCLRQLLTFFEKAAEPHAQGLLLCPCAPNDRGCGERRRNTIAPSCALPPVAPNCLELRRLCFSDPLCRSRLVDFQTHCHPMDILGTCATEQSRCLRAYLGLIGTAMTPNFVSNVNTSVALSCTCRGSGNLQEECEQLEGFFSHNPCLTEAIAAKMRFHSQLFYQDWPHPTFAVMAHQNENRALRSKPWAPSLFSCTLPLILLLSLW


Assays:
[1] = molecular target: T3, human GFRα3 expressed with a C-terminal myc-myc-hexahistidine tag (human, UniProt O60609 32-374, biotinylated (sites not given) in ELISA format 2 and in the Octet cross-competition; not in SPR); test: Octet cross-competition; biotin-hGFRα3-mmH pre-saturated with first antibody H4H2236N3
T3 construct: also called hGFRα3-mmh; hGFRα3-mmH
Procedure: (§1) A cross-competition assay was conducted to assess the ability of select antibodies to compete with one another for binding to human GFRα3 using an Octet RED384 biosensor (Fortebio Inc.). The entire experiment was performed at 25° C. with the flow rate of 1000 rpm in Octet HBST buffer (0.01 M HEPES pH7.4, 0.15M NaCl, 3 mM EDTA, 0.05% v/v Surfactant P20, 0.1 mg/mL BSA). To assess whether 2 antibodies were able to compete with one another for binding to their respective epitopes on biotinylated recombinant human GFRα3 expressed with a C-terminal myc-myc-hexahistidine tag (biotin-hGFRα3-mmH; SEQ ID:370), around ˜1.2 nm of biotin-hGFRα3-mmH was first captured onto streptavidin-coated Octet sensor tips (Fortebio Inc, #18-5019) by submerging the tips for 1 minute into a 10 μg/mL solution of biotin-hGFRα3-mmH. The antigen coated sensor tips were then placed into wells containing 25 μg/mL solution of a first anti-GFRα3 monoclonal antibody for 4 minutes to saturate the biotin-hGFRα3-mmH surface. The sensor tips were then subsequently dipped into wells containing 25 μ/mL solution of a second anti-GFRα3 monoclonal antibody. The sensor tips were washed in Octet HBST buffer in between every step of the experiment. The real-time binding response was monitored during the course of the experiment and the binding response at the end of every step was recorded as shown in FIG. 9. The response of mAb-2 binding to biotin-hGFRα3-mmH pre-complexed with the first antibody was compared and competitive/non-competitive behavior of different anti-GFRα3 monoclonal antibodies was determined.

[2] = molecular target: T4, human GFRα1 expressed with only a C-terminal human Fc tag (human); test: BLI Octet, antigen captured on anti-hFc tips
T4 construct: also called hGFRα1-hFc
Procedure: (§2) The ability of anti-GFRα3 antibodies to bind to GDNF-family receptors was assessed using an Octet Red biosensor (Fortebio, Inc.). Antibodies were tested for binding to either human GFRα1 expressed with a C-terminal human Fc tag and a hexahistidine tag (hGFRα1-hFc-6His, R&D Systems #714-GR), human GFRα1 expressed with only a C-terminal human Fc tag (hGFRα1-hFc; SEQ ID: 376), human GFRα2 expressed with a C-terminal human Fc tag and a hexahistidine tag (hGFRα2-hFc-6His, R&D Systems #613-FR), human GFRα3 expressed with a C-terminal human Fc tag (hGFRα3-hFc, SEQ ID:371), or an irrelevant human Fc tagged protein. Antigens were captured onto anti-human Fc sensor tips from 10 ug/mL solutions for 5 minutes. The coated sensor tips were then blocked with a 100 ug/mL solution of irrelevant human Fc antibodies for 5 minutes. Blocked sensor tips were then submerged into wells containing […] of each anti-GFRα3 antibody or buffer alone for 10 minutes. The experiment was performed at 25° C. with a flow rate of 1000 rpm using HBST+BSA buffer (10 mM HEPES, 150 mM NaCl, 3 mM EDTA, 0.05% w/v Surfactant P20, 0.1 mg/mL BSA, pH 7.4). The binding response (measured in units of nm) at each step of the experiment was monitored and recorded.

[3] = molecular target: T1, human GFRα2 expressed with a C-terminal …; test: BLI Octet, antigen captured on anti-hFc tips
Procedure: as §2

[4] = molecular target: T2, cynomolgus GFRα3 on …; test: cell-based or functional assay
[5] = molecular target: T3, human GFRα3 expressed with a C-terminal …; test: Octet cross-competition; biotin-hGFRα3-mmH pre-saturated with first antibody H4H2352S
Procedure: as §1

T3 sequence (O60609 other isoform, or with tags, fused parts or gaps limits assumed): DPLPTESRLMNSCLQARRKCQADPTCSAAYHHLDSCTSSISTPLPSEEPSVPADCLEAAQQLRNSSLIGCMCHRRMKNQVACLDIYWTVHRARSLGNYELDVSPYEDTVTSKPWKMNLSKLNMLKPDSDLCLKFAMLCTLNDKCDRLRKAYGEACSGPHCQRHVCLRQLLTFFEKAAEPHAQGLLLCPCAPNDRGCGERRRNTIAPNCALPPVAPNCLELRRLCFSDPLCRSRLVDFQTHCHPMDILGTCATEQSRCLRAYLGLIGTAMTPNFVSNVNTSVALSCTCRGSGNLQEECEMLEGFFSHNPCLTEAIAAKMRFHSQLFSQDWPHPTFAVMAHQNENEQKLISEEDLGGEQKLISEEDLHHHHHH

| binding response of second antibody (nm) [1] [nm] | binding result [2] | binding result [3] | IC50 (SRE-luc, HEK293/MfGFRα3/MfRET cells, 500 pM human ARTEMIN-MMH) [4] [nM] | binding response of second antibody (nm) [5] [nm] | Binder |
| --- | --- | --- | --- | --- | --- |
| 0.02 | no binding (tested: 100 ug/mL) | no binding (tested: 100 ug/mL) | 0.8 | 0.13 | H4H2243N2 (antibody, human IgG4, V domains shown, human IgG4 Fc (H4H)) VH: QVQLVQSGAEVKKPGASVKVSCKASGYTFTSYGIIWVRQAPGQGLEWMGWISGYNGNTNYAQNLQGRVTMTTDTSTTTAYMELRSLRSDDTAVYYCARWGIATRPYYYYGMDVWGQGTTVTVSS VL: DIQMTQSPSSLSASVGDRVTITCRASQDITNYLAWFQQKPGKAPKSLIYAASSLQSGVPSKFSGSGSGTDFTLTISSLQPEDFATYYCQQYNSYPPTFGPGTKVDIK |
| 1.91 | no binding (tested: 100 ug/mL) | no binding (tested: 100 ug/mL) | 1.3 | 0.1 | H4H2352S (antibody, human IgG4, V domains shown, human IgG4 Fc (H4H); also called H4H2352S-1) VH: EVQLVQSGAEVKKPGASVKVSCKASGYTFTNYGITWVRQAPGQGLEWMGWISAYNGNTGYAQKFQGRVTMTTDTSTSTAYMELRSLRSDDTAVYYCAREDYDFWRAFDIWGQGTMVTVSS VL: EIVLTQSPGTLSLSPGERATLSCRASQSVSSTYLAWLQQKPGQAPRLLIYGASSRATGIPDRFSGSGSGTDFTLTINRLEPEDFAVYYCQQYAYSPYTFGQGTKLEIK |
